B1: Polycystin-2 (Homo sapiens), Q13563 (parent)
chain: MVNSSRVQPQQPGDAKRPPAPRAPDPGRLMAGCAAVGASLAAPGGLCEQRGLEIEMQRIRQAAARDPPAGAAASPSPPLSSCSRQAWSRDNPGFEAEEEEEEVEGEEGGMVVEMDVEWRPGSRRSAASSAVSSVGARSRGLGGYHGAGHPSGRRRRREDQGPPCPSPVGGGDPLHRHLPLEGQPPRVAWAERLVRGLRGLWGTRLMEESSTNREKYLKSVLRELVTYLLFLIVLCILTYGMMSSNVYYYTRMMSQLFLDTPVSKTEKTNFKTLSSMEDFWKFTEGSLLDGLYWKMQPSNQTEADNRSFIFYENLLLGVPRIRQLRVRNGSCSIPQDLRDEIKECYDVYSVSSEDRAPFGPRNGTAWIYTSEKDLNGSSHWGIIATYSGAGYYLDLSRTREETAAQVASLKKNVWLDRGTRATFIDFSVYNANINLFCVVRLLVEFPATGGVIPSWQFQPLKLIRYVTTFDFFLAACEIIFCFFIFYYVVEEILEIRIHKLHYFRSFWNCLDVVIVVLSVVAIGINIYRTSNVEVLLQFLEDQNTFPNFEHLAYWQIQFNNIAAVTVFFVWIKLFKFINFNRTMSQLSTTMSRCAKDLFGFAIMFFIIFLAYAQLAYLVFGTQVDDFSTFQECIFTQFRIILGDINFAEIEEANRVLGPIYFTTFVFFMFFILLNMFLAIINDTYSEVKSDLAQQKAEMELSDLIRKGYHKALVKLKLKKNTVDDISESLRQGGGKLNFDELRQDLKGKGHTDAEIEAIFTKYDQDGDQELTEHEHQQMRDDLEKEREDLDLDHSSLPRPMSSRSFPRSLDDSEEDDDEDSGHSSRRRGSISSGVSYEEFQVLVRRVDRMEHSIGSIVSKIDAVIVKLEIMERAKLKRREVLGRLLDGVAEDERLGRDSEIHREQMERLVREELERWESDDAASQISHGLGTPVGLNGQPRPRSSRPSSSQSTEGMEGAGGNGSSNVHV
partner: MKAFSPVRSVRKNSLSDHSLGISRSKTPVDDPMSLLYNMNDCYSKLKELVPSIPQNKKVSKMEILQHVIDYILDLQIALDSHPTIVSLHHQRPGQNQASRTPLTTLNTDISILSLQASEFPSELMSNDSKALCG

Variants of: B1
Settings: with id2_human ID2, Q02363

effect of a mutation on the interaction	Variant
disrupting interaction	S812A
